Assay results reported in the supplement of paper PMC6757056.
± gives the standard deviation of the averaged measurements.

B1: library; a variant is named by its letters at N, in order (parent)
chain: GCUGUCACCGAGAAACUGUGAAGUAUAUCUUAAACCUGGGCACUUAAAAGAUAUAUGGAGUUAGUAGUGCAACCUGCUCGGUCUGAUGAGUCCNNNNNNGGACGAAACAGC

Tests used:
[1] = variants of: B1; experiment: normalized RNA/DNA level without ligand (relative to sTRSVctl = 100) (log10 (% of sTRSVctl)); HEK293T; ligand: cyclic di-GMP (c-di-GMP-II aptamer); higher = less ribozyme self-cleavage, higher mRNA level; details: reporter: mCherry (pCS4076), ligand present: no
Procedure, shortened: (§1)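 Only sequences with at least 100 DNA reads were analyzed, from HEK293T cells transfected with 4 µg per 6-well well of ribozyme switch library plasmids 72 h before RNA extraction with EDTA. Any ligand was added 1 h before transfection. RNA level was defined as RNA over DNA reads, normalized to a spiked-in non-cleaving sequence or to the top sequences, then scaled and log-transformed. The top set was 25 sequences, and the scaling was ×100 followed by log10.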

[2] = variants of: B1; experiment: normalized RNA/DNA level with ligand (relative to sTRSVctl = 100) (log10 (% of sTRSVctl)); HEK293T; ligand: cyclic di-GMP (c-di-GMP-II aptamer); ligand concentration (+) RNA-Seq: 1 mM; higher = less ribozyme self-cleavage, higher mRNA level; details: reporter: mCherry (pCS4076), ligand present: yes
Procedure, shortened: as §1

| Variant | normalized RNA/DNA level without ligand (log10) [1] | normalized RNA/DNA level with ligand (log10) [2] |
| --- | --- | --- |
| AUUUUG | 1.68 ± 0.045 | 1.81 ± 0.056 |
| AUUUUA | 1.62 ± 0.032 | 1.8 ± 0.13 |
| AUUUUC | 1.74 ± 0.024 | 1.85 ± 0.092 |
| AUUUUU | 1.76 ± 0.03 | 1.89 ± 0.075 |
| GUUUUA | 1.63 ± 0.032 | 1.82 ± 0.098 |
| GUUUUC | 1.69 ± 0.025 | 1.86 ± 0.09 |
| GUUUGU | 1.69 ± 0.022 | 1.84 ± 0.067 |
| AUUUGU | 1.66 ± 0.017 | 1.85 ± 0.12 |
| AUUUGA | 1.51 ± 0.052 | 1.75 ± 0.16 |
| AUUUGC | 1.76 ± 0.038 | 1.87 ± 0.12 |
| AUUUGG | 1.56 ± 0.032 | 1.77 ± 0.088 |
| UUUUCC | 1.84 ± 0.058 | 1.89 ± 0.16 |
| UUUUCU | 1.78 ± 0.071 | 1.9 ± 0.12 |
| CUUUUG | 1.796 ± 0.016 | 1.92 ± 0.13 |
| CUUUUU | 1.611 ± 0.013 | 1.79 ± 0.11 |
| CUUUUC | 1.73 ± 0.022 | 1.85 ± 0.12 |
| CUUUUA | 1.42 ± 0.12 | 1.66 ± 0.07 |
| GUUUCC | 1.82 ± 0.07 | 1.88 ± 0.15 |

| Variant | normalized RNA/DNA level without ligand (log10) [1] | normalized RNA/DNA level with ligand (log10) [2] |
| --- | --- | --- |
| GUUUCU | 1.711 ± 0.014 | 1.86 ± 0.097 |
| GUUUCG | 1.71 ± 0.051 | 1.85 ± 0.099 |
| CUUUGG | 1.781 ± 0.0073 | 1.87 ± 0.089 |
| CUUUGC | 1.795 ± 0.017 | 1.88 ± 0.11 |
| CUUUGU | 1.78 ± 0.029 | 1.87 ± 0.049 |
| CUUUGA | 1.66 ± 0.019 | 1.79 ± 0.11 |
| UUUUUG | 1.77 ± 0.028 | 1.87 ± 0.088 |
| UUUUUC | 1.78 ± 0.052 | 1.88 ± 0.14 |
| UUUUUU | 1.77 ± 0.056 | 1.88 ± 0.097 |
| UUUUUA | 1.77 ± 0.038 | 1.92 ± 0.11 |
| UUUUGA | 1.74 ± 0.062 | 1.89 ± 0.2 |
| UUUUGC | 1.76 ± 0.045 | 1.85 ± 0.11 |
| UUUUGG | 1.82 ± 0.05 | 1.93 ± 0.13 |
| UUUUGU | 1.74 ± 0.035 | 1.87 ± 0.15 |
| CUUUCG | 1.8 ± 0.046 | 1.88 ± 0.05 |
| AUUUCG | 1.66 ± 0.028 | 1.82 ± 0.09 |
| AUUUCU | 1.74 ± 0.06 | 1.87 ± 0.12 |
